Substitutions are numbered along the chain they refer to.
B1: 12-34 (antibody, V domains shown)
VH: QVQLVESGGGVVQPGRSLRLSCAASGFIFRSYAMHWVRQAPGKGLEWVAVISYDGSSKYYADSVKGRFTISRDNSKNTLYLQMNSLRAEDTAVYYCARPSGGSYFDPFDYWGQGTLVTVSS
VL: EIVLTQSPATLSLSPGERATLSCRASQSVGNFLAWYQQKPGQAPRLLIYDASNRATGIPARFSGSGSGTDFTLTISSLEPEDFAVYYCQHRRLLTFGGGTKVEIK
B2: 12-13 (antibody, V domains shown)
VH: QVQLVESGGGVVQPGRSLRLSCAASGFSFSTYGMHWVRQAPGKGLEWVAVISYDGSNKYYADSVKGRFTISRDNSKNTLYLQMNSLRAEDTAVYYCARPLSGSYWSWFDPWGQGTLVTVSS
VL: EIVLTQSPATLSLSPGERATLSCRASQSVGSYLAWYQQKPGQAPRLLIYDAVNRATGIPARFSGSGSGTDFTLTISSLEPEDFAVYYCQQRNSWPPATFGGGTKVEIK
B3: 12-31 (antibody, V domains shown)
VH: B2 VH with S28T, T31Y, G33T, I51T, S101G, W105F, S106A, W107A, P110I
VL: B1 VL with V29I, N31S, F32Y, A51V, H90Q, R92D, L93S, L94F
B4: 12-36 (antibody, V domains shown)
VH: B2 VH with S30N, T31N, K58D, L100N, W105S, S106N, W107Y, P110Y
VL: EIVLTQSPATLSLSPGERATLSCRASQGISTYLAWYQQKPGQAPRLLIYDASNRATGIPARFSGSGSGTDFTLTISSLEPEDFAVYYCQQRRRWPPTFGGGTKVEIK
B5: 12-27 (antibody, V domains shown)
VH: B1 VH with I28S, R30G, S31G, A33G, S57T, S100R, F105K, P107A, Y110I
VL: B4 VL with Q27D, G28T, I29V, T31S, A51T, R92A, R93S, P96L, T97S
B6: 12-21 (antibody, V domains shown)
VH: B2 VH with S30G, T31G, L100K, S101G, S103N, S106N, W107A, P110I
VL: EIVLTQSPATLSLSPGERATLSCRASQSVNSDLAWYQQKPGQAPRLLIYDASNRATGIPARFSGSGSGTDFTLTISSLEPEDFAVYYCQERSLFGGGTKVEIK
B7: 12-15 (antibody, V domains shown)
VH: B2 VH with S30G, T31G, L100Y, W105I, P110Y
VL: B2 VL with G30S, Y32H, A51V, V52S, Q90V, N92S, S93D, A97L
B8: 12-22 (antibody, V domains shown)
VH: B2 VH with S28T, T31S, S56N, N57H, K58E, L100K, W105V, W107Y, P110Y
VL: B4 VL with G28S, I29V, S30R, T31H, Y32H, Q90E, R92S, R93D, P96I
B9: 12-16 (antibody, V domains shown)
VH: B1 VH with P99T, S100L, D106A, P107A, Y110I
VL: B2 VL with V29L, G30D, A51V, V52S, N92R, S93G, A97V
B10: 12-19 (antibody, V domains shown)
VH: QVQLVESGGGVVQPGRSLRLSCAASGFAFSSYAMHWVRQAPGKGLEWVAVISYDGTYEYYADSVKGRFTISRDNSKNTLYLQMNSLRAEDTAVYYCARSLGGSYFSGMDVWGQGTLVTVSS
VL: B2 VL with V29I, G30S, S31R, A51V, V52S, R91S, N92S, S93N, P96L, A97F
B11: 12-32 (antibody, V domains shown)
VH: B2 VH with S28T, S30G, G33A, S56N, R98K, P99T, L100M, W105F, W107A, P110I
VL: B1 VL with V29I, N31S, F32Y, A51V, H90Q, R92D, L93S, L94F
B12: 12-43 (antibody, V domains shown)
VH: B2 VH with S28I, T31S, K58E, L100R, W105L, W107A, P110Y
VL: B4 VL with G28S, I29V, S30G, T31K, Y32S, A51T, R92G, R93S, W94F, P96L
B13: 12-29 (antibody, V domains shown)
VH: B2 VH with T31N, S56N, P99S, L100K, S101G, W105Y, S106G, W107P, P110D
VL: B2 VL with S28I, V29I, G30S, A51T, V52S, Q90V, N92S, S93N, A97L
B14: 12-20 (antibody, V domains shown)
VH: B1 VH with I28S, R30G, S31G, A33G, S57N, P99S, S100K, F105Y, D106G
VL: B2 VL with V29L, S31N, A51S, V52S, S93T, P96G, A97V
B15: 12-17 (antibody, V domains shown)
VH: QVQLVESGGGVVQPGRSLRLSCAASGFTFGSYGMHWVRQAPGKGLEWVAVISYDGNHEYYADSVKGRFTISRDNSKNTLYLQMNSLRAEDTAVYYCARPHSGSYTAYFDYWGQGTLVTVSS
VL: B4 VL with G28S, I29V, T31K, Y32F, Q89H, R91H, R92S, R93D, P96L
B16: 12-39 (antibody, V domains shown)
VH: B15 VH with G30S, G33A, P99A, T105F, A106S, Y107H
VL: EIVLTQSPATLSLSPGERATLSCRASESISTYLAWYQQKPGQAPRLLIYDASNRATGIPARFSGSGSGTDFTLTISSLEPEDLAVYYCQQRRNSLTFGGGTKVEIK
B17: 12-28 (antibody, V domains shown)
VH: B10 VH with A28T, Y57N, V64E, S99A, L100H
VL: B4 VL with G28S, I29V, S30R, T31H, Y32H, R91S, R92G, R93S, P96L
B18: 12-24 (antibody, V domains shown)
VH: QVQLVESGGGVVQPGRSLRLSCAASGFTFSNFPMHWVRQAPGKGLEWVAVISYDGNNKYYADSVKGRFTISRDNSKNTLYLQMNSLRAEDTAVYYCAKDHGDHYFDYWGQGTLVTVSS
VL: B16 VL with E27Q, I29F, S30G, T31D, Y32S, L83F, R92S, N93I, S94P, L95I
B19: 12-42 (antibody, V domains shown)
VH: QVQLVESGGGVVQPGRSLRLSCAASGFTFGSYGMHWVRQAPGKGLEWVAVISYDGSHKYYADSVKGRFTISRDNSKNTLYLQMNSLRAEDTAVYYCARALGGNYYYFDYWGQGTLVTVSS
VL: EIVLTQSPATLSLSPGERATLSCRASQSVDSRLAWYQQKPGQAPRLLIYDTSNRATGIPARFSGSGSGTDFTLTISSLEPEDFAVYYCQQRSSNWTFGGGTKVEIK
B20: 12-37 (antibody, V domains shown)
VH: QVQLVESGGGVVQPGRSLRFSCAGTGFTFSSYAMHWVRQAPGKGLEWVAVISYDGSNQYYADSVKGRFTISRDNSKNTLYLQMNSLRAEDTAVYYCARSRSGSYLAYFDYWGQGTLVTVSS
VL: B16 VL with V3E, I29V, T31E, Y32S, L83F, R92T, N93H, S94G, L95V
B21: 12-26 (antibody, V domains shown)
VH: QVQLVESGGGVVQPGRSLRLSCAASGFTFSNYAMHWVRQAPGKGLEWVAVISYDGSNEYYADSEKGRFTISRDNSKNTLYLQMNSLRAEDTAVYYCAKSGSGSYFSPFDYWGQGTLVTVSS
VL: B16 VL with E27Q, I29V, Y32S, A51I, L83F, N93S, S94G
B22: 13-5 (antibody, V domains shown)
VH: B1 VH with S100L, S103G, F105Q, P107A, Y110I
VL: B2 VL with V29I, A51V, V52S, L78F, N92H, S93H, A97V
B23: 13-1 (antibody, V domains shown)
VH: B19 VH with G30S, G33S, S56R, H57N, K58Q, R98K, A99G, L100Y, F107M, Y109G
VL: B19 VL with D30G, S31D, R32F, S93I, N94R, W95G
B24: 13-3 (antibody, V domains shown)
VH: QVQLVESGGGVVQPGRSLRLSCAASGFSFNNHAMHWVRQAPGKGLEWVAVISYDGSDKYYADSVKGRFTISRDNSKNTLYLQMNSLRAEDTAVYYCARNLLRGYGMDVWGQGTLVTVSS
VL: DIQMTQSPSSLSASVGDRVTITCRASQSIGDYLNWYQQKPGKAPKLLIYEASSLQSGVPSRFSGSGSGTDFTLTISSLQPEDFATYYCLHTYLPPYSFGQGTKVEIK
B25: 13-4 (antibody, V domains shown)
VH: QVQLVESGGGVVQPGRSLRLSCAASGFAFDDYAMHWVRQAPGKGLEWVAVISYDGSNKYYADSVKGRFTISRDNSKNTLYLQMNSLRAEDTAVYYCATLGYGDYPDYWGQGTLVTVSS
VL: B24 VL with G30T, D31R, E50A, L89Q, H90Q, L93N, P94F, Y96H, S97T

Molecular target: biotinylated SARS-CoV-2 S1 variant B.1.351 (Example 5) (SARS-CoV-2) (UniProt P0DTC2)
Assay: phage ELISA screening

| Binder | ELISA |
| --- | --- |
| B1 | 5.81 |
| B2 | 18.1 |
| B3 | 7.01 |
| B4 | 5.51 |
| B5 | 8.83 |
| B6 | 11.7 |
| B7 | 17.6 |
| B8 | 10.5 |
| B9 | 17 |
| B10 | 13.8 |
| B11 | 6.88 |
| B12 | 4.82 |
| B13 | 7.55 |
| B14 | 13.3 |
| B15 | 16.2 |
| B16 | 5.09 |
| B17 | 8.63 |
| B18 | 9.63 |
| B19 | 4.93 |
| B20 | 5.5 |
| B21 | 9.05 |

Molecular target: biotinylated SARS-CoV-2 S1 variant P.1 (Example 5) (SARS-CoV-2) (UniProt P0DTC2)
Assay: phage ELISA screening

| Binder | ELISA |
| --- | --- |
| B22 | 10.3 |
| B23 | 22.2 |
| B24 | 19.5 |
| B25 | 18.9 |

Reference: patent publication US20230192818A1
